How the values were obtained:
[1] = tested on: adrenomedullin (synthetic human AM)
[2] = molecular target: human complement factor H (UniProt P08603)
human complement factor H, sequence (P08603 19-1231): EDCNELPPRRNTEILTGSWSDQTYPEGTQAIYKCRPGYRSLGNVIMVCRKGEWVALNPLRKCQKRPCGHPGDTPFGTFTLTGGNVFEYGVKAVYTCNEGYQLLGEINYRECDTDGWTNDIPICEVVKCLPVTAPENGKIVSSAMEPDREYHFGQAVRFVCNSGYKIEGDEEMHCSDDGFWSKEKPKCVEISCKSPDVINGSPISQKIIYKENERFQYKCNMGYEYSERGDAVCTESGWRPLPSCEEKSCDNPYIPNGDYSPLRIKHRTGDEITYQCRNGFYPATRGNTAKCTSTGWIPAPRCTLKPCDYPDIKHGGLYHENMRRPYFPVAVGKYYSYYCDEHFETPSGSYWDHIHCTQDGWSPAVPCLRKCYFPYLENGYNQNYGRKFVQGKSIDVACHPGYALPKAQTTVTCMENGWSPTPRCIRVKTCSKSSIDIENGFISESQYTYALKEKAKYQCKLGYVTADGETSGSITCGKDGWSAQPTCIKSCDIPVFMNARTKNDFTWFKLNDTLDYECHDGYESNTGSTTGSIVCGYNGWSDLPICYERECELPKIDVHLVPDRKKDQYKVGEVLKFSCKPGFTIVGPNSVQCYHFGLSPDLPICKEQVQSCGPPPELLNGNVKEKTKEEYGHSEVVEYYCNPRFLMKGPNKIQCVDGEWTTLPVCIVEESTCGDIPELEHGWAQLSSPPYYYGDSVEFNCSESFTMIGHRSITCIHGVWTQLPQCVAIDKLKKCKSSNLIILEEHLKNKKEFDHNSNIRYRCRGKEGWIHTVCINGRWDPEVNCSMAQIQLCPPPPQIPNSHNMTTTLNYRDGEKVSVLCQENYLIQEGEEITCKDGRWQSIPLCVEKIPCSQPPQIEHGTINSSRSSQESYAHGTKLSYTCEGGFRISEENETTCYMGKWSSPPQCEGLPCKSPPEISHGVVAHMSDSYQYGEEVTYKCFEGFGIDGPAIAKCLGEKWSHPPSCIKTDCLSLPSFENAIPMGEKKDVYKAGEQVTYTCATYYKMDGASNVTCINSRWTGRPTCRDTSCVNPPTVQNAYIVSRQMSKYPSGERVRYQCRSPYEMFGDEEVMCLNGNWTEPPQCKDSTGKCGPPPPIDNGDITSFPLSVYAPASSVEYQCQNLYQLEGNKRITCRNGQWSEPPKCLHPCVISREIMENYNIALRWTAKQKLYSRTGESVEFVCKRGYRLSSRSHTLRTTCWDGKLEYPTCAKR

Substance: human recombinant MMP-9
- degradation of synthetic AM (gel) [1]: The resistance of AM to degradation by MMP-9
- degradation of factor H (gel) [2]: is not a substrate for either one of the MMPs

Source: patent publication US20050261179
